# Results: article PMC8760489 (The Journal of Biological Chemistry, 2021)
# T1: His6-TviD (Salmonella enterica serovar Typhi, UniProt Q04974 1-831)
# T1 sequence: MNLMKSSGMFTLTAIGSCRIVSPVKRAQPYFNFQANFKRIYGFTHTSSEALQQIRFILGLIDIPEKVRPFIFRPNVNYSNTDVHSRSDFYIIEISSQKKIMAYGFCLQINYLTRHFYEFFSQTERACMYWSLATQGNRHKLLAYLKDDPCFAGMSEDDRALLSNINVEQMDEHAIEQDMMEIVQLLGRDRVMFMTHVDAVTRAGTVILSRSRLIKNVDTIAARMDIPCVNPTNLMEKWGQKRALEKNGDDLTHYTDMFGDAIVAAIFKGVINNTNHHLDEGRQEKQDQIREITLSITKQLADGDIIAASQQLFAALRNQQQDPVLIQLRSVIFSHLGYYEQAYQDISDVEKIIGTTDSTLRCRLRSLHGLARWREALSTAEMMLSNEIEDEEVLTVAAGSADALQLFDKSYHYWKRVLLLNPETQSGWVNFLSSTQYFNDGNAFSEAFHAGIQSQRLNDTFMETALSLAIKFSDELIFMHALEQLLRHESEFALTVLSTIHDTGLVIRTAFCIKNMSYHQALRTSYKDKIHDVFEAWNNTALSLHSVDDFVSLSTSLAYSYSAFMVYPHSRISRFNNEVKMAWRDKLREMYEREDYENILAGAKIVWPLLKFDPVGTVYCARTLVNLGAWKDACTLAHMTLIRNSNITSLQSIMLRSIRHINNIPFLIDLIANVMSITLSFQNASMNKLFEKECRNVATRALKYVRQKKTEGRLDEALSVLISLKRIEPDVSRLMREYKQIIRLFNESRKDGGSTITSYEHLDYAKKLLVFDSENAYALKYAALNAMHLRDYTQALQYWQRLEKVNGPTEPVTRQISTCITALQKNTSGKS
# B1: TviE-FLAG (enzyme)
# chain: MITQEEKLAALGKTCLTLKQEKKLAQAVALIDSELPTEALTSLAMLKKAEFLHDVNETERAYALYETLIAQNNDEARYEYARRLYNTGLAKDAQLILKKVSNGVQKKYNNYLGKINKICDLLERLEGKAIPVGTNTCIIAMKHAILFYRNRQPRQLPVGSFGRLALCTGSLGSGGAERQISRLAIEIARKYRQKGKIGGLKVEEPVELIIRSLTPELRQDFFLKEVLEEQVEVLEIAKITGNLFDDATIESPELRLLLSHLPPVCKYGIKHLVPHLCERKLDYLSVWQDSACLMIALAALIAGVPRIQLGLRGLPPVVRKRLFKPEYEPLYQALAVVPGVDFMSNNHCVTRHYADWLKLEAKHFQVVYNGVLPPSTEPSSEVPHKIWQQFTQKTQDADTTIGGVFRFVGDKNPFAWIDFAARYLQHHPATRFVLVGDGDLRAEAQKRAEQLGILERILFVGASRDVGYWLQKMNVFILFSRYEGLPNVLIEAQMVGVPVISTPAGGSAECFIEGVSGFILDDAQTVNLDQACRYAEKLVNLWRSRTGICQQTQSFLQERFTVEHMVGTFVKTIASQPR
# Molecular target: T1, His6-TviD
# Experiment: […]
binder,measurement,value
B1,binding result,binds
